{"source": "paper PMC2744139", "binders": {"B1": {"name": "7-base 3'-overhang telomeric DNA (mixed)", "DNA": "GTGGGTGTGTGTGTGGGGTGGTGTGTGTGG", "?": "CACCACCCCACACACACACCCAC"}}, "biological_target": "Cdc13 full-length (FL) (Saccharomyces cerevisiae, UniProt P32797 1-924)", "sequence (P32797 whole entry)": "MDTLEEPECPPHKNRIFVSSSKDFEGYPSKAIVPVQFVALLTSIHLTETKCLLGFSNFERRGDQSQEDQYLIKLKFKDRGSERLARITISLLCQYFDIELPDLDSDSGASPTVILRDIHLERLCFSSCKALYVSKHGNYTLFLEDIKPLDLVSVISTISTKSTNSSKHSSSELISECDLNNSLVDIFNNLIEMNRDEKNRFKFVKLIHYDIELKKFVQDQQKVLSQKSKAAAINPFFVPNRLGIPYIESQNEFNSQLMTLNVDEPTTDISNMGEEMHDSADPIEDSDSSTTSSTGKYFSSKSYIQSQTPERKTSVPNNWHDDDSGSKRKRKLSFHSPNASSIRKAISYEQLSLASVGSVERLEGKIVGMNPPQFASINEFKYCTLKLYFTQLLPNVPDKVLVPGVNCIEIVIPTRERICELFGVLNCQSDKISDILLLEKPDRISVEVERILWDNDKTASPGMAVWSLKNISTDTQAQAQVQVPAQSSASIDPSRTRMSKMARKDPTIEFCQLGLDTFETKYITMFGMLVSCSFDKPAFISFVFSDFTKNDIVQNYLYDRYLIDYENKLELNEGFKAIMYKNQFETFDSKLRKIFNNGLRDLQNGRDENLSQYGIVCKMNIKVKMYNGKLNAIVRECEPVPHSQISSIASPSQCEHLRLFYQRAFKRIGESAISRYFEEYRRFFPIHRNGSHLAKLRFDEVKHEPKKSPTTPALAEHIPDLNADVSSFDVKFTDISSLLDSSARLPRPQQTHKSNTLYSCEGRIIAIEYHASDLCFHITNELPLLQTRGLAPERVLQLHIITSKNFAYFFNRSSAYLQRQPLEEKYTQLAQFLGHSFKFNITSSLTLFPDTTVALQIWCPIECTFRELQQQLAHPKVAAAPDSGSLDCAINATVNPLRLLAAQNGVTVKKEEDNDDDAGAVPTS", "assay": "fluorescence anisotropy"}
{"binder": "B1", "values": [{"measurement": "binding result", "result": "no binding"}]}
